From patent US20180154038A1
Where no end group is shown, it is not given here.

Biological target: human fibrinogen (human) (UniProt P02671)
Experiment: cell-based or functional assay

Sequence of human fibrinogen (human) (P02671 20-629 limits assumed, chain 1 of 3): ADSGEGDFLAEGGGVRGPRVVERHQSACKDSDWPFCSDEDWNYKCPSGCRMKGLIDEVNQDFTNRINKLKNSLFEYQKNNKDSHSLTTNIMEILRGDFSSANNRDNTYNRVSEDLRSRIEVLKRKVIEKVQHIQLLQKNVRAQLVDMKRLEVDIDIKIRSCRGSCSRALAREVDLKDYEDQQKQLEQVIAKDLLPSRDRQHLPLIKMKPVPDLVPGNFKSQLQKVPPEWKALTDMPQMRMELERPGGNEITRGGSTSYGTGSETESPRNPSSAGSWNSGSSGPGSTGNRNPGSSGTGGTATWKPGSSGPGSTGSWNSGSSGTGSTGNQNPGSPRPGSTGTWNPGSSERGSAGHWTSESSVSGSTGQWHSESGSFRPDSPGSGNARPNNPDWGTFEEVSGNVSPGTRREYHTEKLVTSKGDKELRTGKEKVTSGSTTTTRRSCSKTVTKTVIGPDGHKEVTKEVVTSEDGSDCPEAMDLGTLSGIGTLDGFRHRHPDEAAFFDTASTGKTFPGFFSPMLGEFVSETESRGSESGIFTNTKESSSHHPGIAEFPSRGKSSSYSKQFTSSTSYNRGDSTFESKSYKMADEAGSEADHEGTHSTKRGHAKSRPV
Sequence of human fibrinogen (human) (P02675 31-491 limits assumed, chain 2 of 3, further chain): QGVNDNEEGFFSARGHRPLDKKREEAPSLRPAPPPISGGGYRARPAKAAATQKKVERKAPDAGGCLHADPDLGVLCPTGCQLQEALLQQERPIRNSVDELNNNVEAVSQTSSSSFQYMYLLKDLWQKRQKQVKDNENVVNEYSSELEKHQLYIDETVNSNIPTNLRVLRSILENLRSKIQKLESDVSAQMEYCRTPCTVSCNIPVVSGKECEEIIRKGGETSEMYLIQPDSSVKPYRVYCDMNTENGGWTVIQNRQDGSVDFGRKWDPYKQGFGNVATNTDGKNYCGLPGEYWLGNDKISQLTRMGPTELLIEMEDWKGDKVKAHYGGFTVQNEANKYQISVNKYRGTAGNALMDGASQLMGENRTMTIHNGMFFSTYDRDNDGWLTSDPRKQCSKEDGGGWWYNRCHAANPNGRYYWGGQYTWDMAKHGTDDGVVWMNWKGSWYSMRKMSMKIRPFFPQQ
Sequence of human fibrinogen (human) (P02679 other isoform, or with tags, fused parts or gaps limits assumed, chain 3 of 3, further chain): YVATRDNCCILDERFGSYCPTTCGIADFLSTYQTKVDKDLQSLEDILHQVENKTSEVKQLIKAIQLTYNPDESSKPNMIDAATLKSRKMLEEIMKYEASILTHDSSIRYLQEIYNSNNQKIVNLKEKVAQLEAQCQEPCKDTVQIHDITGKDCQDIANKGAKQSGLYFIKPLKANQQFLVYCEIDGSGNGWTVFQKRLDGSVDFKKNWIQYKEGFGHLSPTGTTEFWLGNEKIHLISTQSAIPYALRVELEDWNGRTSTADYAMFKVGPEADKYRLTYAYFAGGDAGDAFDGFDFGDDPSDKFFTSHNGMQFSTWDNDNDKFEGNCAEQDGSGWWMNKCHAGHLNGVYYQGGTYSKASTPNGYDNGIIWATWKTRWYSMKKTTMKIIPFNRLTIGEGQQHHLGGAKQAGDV

B1: Peptide Dendrimer No. 12 (peptide, from a related filing, part only)
peptide: GPRPG
chain: KKKKK
modifications: not fully specified; also: five-arm peptide dendrimer, arms attached by C-terminus to branched core
- Clotting activity (seconds) in human fibrinogen @ c = 3 mg/ml; HXP12 extracted from HA paste, 0.06 mg/ml; after sterilization, accelerated aging @ 40 C, 2 weeks: 3.6 s
- Clotting activity (seconds) in human fibrinogen @ c = 3 mg/ml; HXP12 extracted from HA paste, 0.06 mg/ml; after sterilization, accelerated aging @ 40 C, 4 weeks: 5.4 s
- Clotting activity (seconds) in human fibrinogen @ c = 3 mg/ml; HXP12 extracted from HA paste, 0.06 mg/ml; autoclaved @ 121 C: 3.3 s
- Clotting activity (seconds) in human fibrinogen @ c = 3 mg/ml; HXP12 extracted from HA paste, 0.06 mg/ml; non autoclaved: 1 s
- Clotting activity (seconds) in human fibrinogen; HXP12 0.05 mg/ml in saline; after sterilization, storage @ 40 C, 4 wks: 0.9 s
- Clotting activity (seconds) in human fibrinogen; HXP12 0.05 mg/ml in saline; after sterilization, storage @ 40 C, 7 wks: 1.2 s
- Clotting activity (seconds) in human fibrinogen; HXP12 0.05 mg/ml in saline; after sterilization, storage @ 40 C, 13 wks: 1.1 s
- Clotting activity (seconds) in human fibrinogen; HXP12 0.05 mg/ml in saline; after sterilization, storage @ 40 C, 27 wks: 1.1 s
- Clotting activity (seconds) in human fibrinogen; HXP12 0.05 mg/ml in saline; autoclaved @ 121 C: 1 s
- Clotting activity (seconds) in human fibrinogen; HXP12 0.05 mg/ml in saline; non autoclaved: 1.1 s
- Clotting activity (seconds) in human plasma; HXP12 extracted from HA paste, 0.1 mg/ml; after sterilization, accelerated aging @ 80 C, 4 hours: 2.8 s
- Clotting activity (seconds) in human plasma; HXP12 extracted from HA paste, 0.1 mg/ml; after sterilization, accelerated aging @ 80 C, 16 hours: 4.8 s
- Clotting activity (seconds) in human plasma; HXP12 extracted from HA paste, 0.1 mg/ml; autoclaved @ 121 C: 2.6 s
- Clotting activity (seconds) in human plasma; HXP12 extracted from HA paste, 0.1 mg/ml; non autoclaved: 2 s
- clotting time in human plasma, dendrimer 0.25 mg/ml, 37 C: < 1 s
